From patent US20170355773A1 (PELICAN THERAPEUTICS, published 2017)

T1: TNFRSF25-Fc protein (UniProt Q93038 25-199, biotinylated in the capture ELISA)
T1 construct: also called TNFRSF25-Fc fusion protein; biotinylated antigen protein
T1 sequence (looked up): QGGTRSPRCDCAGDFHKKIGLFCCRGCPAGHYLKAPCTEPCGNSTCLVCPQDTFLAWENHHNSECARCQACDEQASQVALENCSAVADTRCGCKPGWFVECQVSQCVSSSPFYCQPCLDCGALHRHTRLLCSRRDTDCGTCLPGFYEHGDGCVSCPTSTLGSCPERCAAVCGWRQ


Columns and labels:
TNFRSF25-Fc protein = molecular target: T1, TNFRSF25-Fc protein; assay: capture ELISA: scFv captured on anti-c-myc antibody, biotinylated TNFRSF25-Fc, streptavidin-HRP, OD450
W330-cAb1.hIgG1(35783) = molecular target: T2, W330-cAb1.hIgG1(35783); assay: ELISA: coated antibody at 5 ug/ml, TNFRSF25 ECD.hFcHis titrated, detection with anti-his-HRP, absorbance at 450 nm; the concentration is that of the TNFRSF25 fusion
T2 construct: Parent hamster anti-TNFRSF25 antibody made chimeric with human IgFc (hIgG1); also called chimeric anti-TNFRSF25 antibody; chimeric parent antibody

Row | EC50 (read off the curve) (TNFRSF25-Fc protein) [mg/L] | EC50 (W330-cAb1.hIgG1(35783)) [mg/L] | Binder
1 | ~0.08 |  | 9A5 (combinatorial scFv clone of W3072-z4C12) (scFv, V domains shown) VH: EVQLVESGGGLSQPGNSLQLSCEASGFTFSNHDLNWVRQAPGKGLEWVAYISSASGLISYADAVRGRFTISRDNAKNSLFLQMNNLKSEDTAMYYCARDPAYTGLYALDFWGQGTQVTVSS VL: QPVLTQSPSASASLSGSVKLTCTLSSELSGFTIVWYQQRPDKAPKYVMYLKSDGSHSKGDGIPDRFSGSSSGAHRYLSISNVQSEDDATYFCGAGYTLANQYGWVFGSGTKVTVL
2 | ~0.2 |  | 4B6 (scFv, V domains shown) VH: EVQLVESGGGLSQPGNSLQLSCEASGFTFSNHDLNWVRQAPGKGLEWVAYISSASGLISYADAVRGRFTISRDNAKNSLFLQMNNLKSEDTAMYYCARDPAYTGLYALDFWGQGTQVTVSS VL: QPVLTQSPSASASLSGSVKLTCTLSSELSNYTIVWYQQRPDKAPKYVMYLKSDGSHSKGDGIPDRFSGSSSGAHRYLSISNVQSEDDATYFCGAGYTLANQYGWVFGSGTKVTVL
3 |  | 4.76 | WBP330-hPro1.ECD.hFcHis (non-mutated) (Fc fusion, also called recombinant TNFRSF25 polypeptide; non-mutated WBP330-hPro1.ECD.hFcHis; not shown: human Fc and 6His tag (hFc-6His)) QGGTRSPRCDCAGDFHKKIGLFCCRGCPAGHYLKAPCTEPCGNSTCLVCPQDTFLAWENHHNSECARCQACDEQASQVALENCSAVADTRCGCKPGWFVECQVSQCVSSSPFYCQPCLDCGALHRHTRLLCSRRDTDCGTCLPGFYEHGDGCVSCPTSTLGSCPERCAAVCGWRQMF
